Earlier results in patent US10786531B2, “Mineral salt-sulfonic acid compositions and methods of use” (BMG PHARMA SPA, priority 2009, dated 2020).

Conditions: animal studies

B1: lactoferrin: globular, cationic, non-heme iron-binding protein (protein, UniProt P02788 20-710, looked up)
Lactotransferrin: GRRRSVQWCAVSQPEATKCFQWQRNMRKVRGPPVSCIKRDSPIQCIQAIAENRADAVTLDGGFIYEAGLAPYKLRPVAAEVYGTERQPRTHYYAVAVVKKGGSFQLNELQGLKSCHTGLRRTAGWNVPIGTLRPFLNWTGPPEPIEAAVARFFSASCVPGADKGQFPNLCRLCAGTGENKCAFSSQEPYFSYSGAFKCLRDGAGDVAFIRESTVFEDLSDEAERDEYELLCPDNTRKPVDKFKDCHLARVPSHAVVARSVNGKEDAIWNLLRQAQEKFGKDKSPKFQLFGSPSGQKDLLFKDSAIGFSRVPPRIDSGLYLGSGYFTAIQNLRKSEEEVAARRARVVWCAVGEQELRKCNQWSGLSEGSVTCSSASTTEDCIALVLKGEADAMSLDGGYVYTAGKCGLVPVLAENYKSQQSSDPDPNCVDRPVEGYLAVAVVRRSDTSLTWNSVKGKKSCHTAVDRTAGWNIPMGLLFNQTGSCKFDEYFSQSCAPGSDPRSNLCALCIGDEQGENKCVPNSNERYYGYTGAFRCLAENAGDVAFVKDVTVLQNTDGNNNEAWAKDLKLADFALLCLDGKRKPVTEARSCHLAMAPNHAVVSRMDKVERLKQVLLHQQAKFGRNGSDCPDKFCLFQSETKNLLFNDNTECLARLHGKTTYEKYLGPQYVAGITNLKKCSTSPLLEACEFLRK
For B1, the “dose well tolerated with minimum toxic effects” value is given as 2000 mg/kg/day.
